Experiments:
Assay in all cases: cell-based or functional assay
[1] = target: HIV-1 MGRM-C-009 Env on pseudovirus (HIV-1)
[2] = target: HIV-1 98CN009 Env on pseudovirus (HIV-1)
[3] = target: HIV-1 MGRM-F1-013 Env (HIV-1)
[4] = target: HIV-1 MGRM-F1-022 Env (HIV-1)
[5] = target: HIV-1 93IN905 Env on pseudovirus (HIV-1)
[6] = target: HIV-1 QH0692.42 (Acute) Env on pseudovirus (HIV-1)
[7] = target: HIV-1 92BR020 Env (HIV-1)
[8] = target: HIV-1 MGRM-Chronic-B-004 Env on pseudovirus (HIV-1)
[9] = target: HIV-1 MGRM-AG-005 Env (HIV-1)
[10] = target: HIV-1 MGRM-AG-003 Env (HIV-1)
[11] = target: HIV-1 93MW959 Env on pseudovirus (HIV-1)
[12] = target: HIV-1 MGRM-C-010 Env on pseudovirus (HIV-1)
[13] = target: HIV-1 MGRM-Chronic-B-011 Env on pseudovirus (HIV-1)
[14] = target: HIV-1 MGRM-C-025 Env on pseudovirus (HIV-1)
[15] = target: HIV-1 MGRM-F1-016 Env (HIV-1)
[16] = target: HIV-1 MGRM-Chronic-B-002 Env on pseudovirus (HIV-1)
[17] = target: HIV-1 MGRM-AE-002 Env (HIV-1)
[18] = target: HIV-1 MGRM-F1-021 Env (HIV-1)
[19] = target: HIV-1 MGRM-AE-001 Env (HIV-1)
[20] = target: HIV-1 TRJ0.58 (Acute) Env on pseudovirus (HIV-1)
[21] = target: HIV-1 SF162 Env on pseudovirus (HIV-1) (UniProt P19550)

Substance | IC50 [1] [µg/mL] | IC50 [2] [µg/mL] | IC50 (pseudovirus neutralization) [3] [µg/mL] | IC50 (pseudovirus neutralization) [4] [µg/mL] | IC50 [5] [µg/mL] | IC50 [6] [µg/mL] | neutralization IC50 [7] [µg/mL] | neutralization IC90 [7] [µg/mL] | IC50 [8] [µg/mL] | IC50 (µg/ml), pseudovirus neutralization [9] [µg/mL] | IC50 (µg/ml), pseudovirus neutralization [10] [µg/mL] | IC50 [11] [µg/mL] | IC50 [12] [µg/mL] | IC50 [13] [µg/mL] | IC50 [14] [µg/mL] | IC50 (pseudovirus neutralization) [15] [µg/mL] | IC50 [16] [µg/mL] | IC50 (µg/ml), pseudovirus neutralization [17] [µg/mL] | IC50 (pseudovirus neutralization) [18] [µg/mL] | IC50 (µg/ml), pseudovirus neutralization [19] [µg/mL] | other results
2F5 (antibody) | > 50 | > 50 | 4.57 | 1.26 | > 50 | 5.42 | > 50 | > 50 | 2.41 | > 50 | 0.14 | > 50 | > 50 | 0.81 | > 50 | 21.5 | 1.25 | 0.31 | 1.37 | 0.29 | IC50 [20]: > 50 µg/mL; IC50 [21]: 2.52 µg/mL
2G12 (antibody) | > 50 | > 50 | > 50 | > 50 | > 50 | 4.39 | 2.26 | 24.1 | 8.65 | > 50 | > 50 | > 50 | > 50 | > 50 | > 50 | > 50 | > 50 | > 50 | 14.1 | > 50 | IC50 [20]: > 50 µg/mL; IC50 [21]: 1.67 µg/mL

Source: US20160264649A1
